Measured values as given in patent EP4725501A1 (Staidson (Beijing) Biopharmaceuticals Co., Ltd., dated 2026).

T1: mouse MASP3-His (mouse, UniProt P98064-2 25-733)
T1 construct: not shown: His tag added to the terminal
T1 sequence (looked up): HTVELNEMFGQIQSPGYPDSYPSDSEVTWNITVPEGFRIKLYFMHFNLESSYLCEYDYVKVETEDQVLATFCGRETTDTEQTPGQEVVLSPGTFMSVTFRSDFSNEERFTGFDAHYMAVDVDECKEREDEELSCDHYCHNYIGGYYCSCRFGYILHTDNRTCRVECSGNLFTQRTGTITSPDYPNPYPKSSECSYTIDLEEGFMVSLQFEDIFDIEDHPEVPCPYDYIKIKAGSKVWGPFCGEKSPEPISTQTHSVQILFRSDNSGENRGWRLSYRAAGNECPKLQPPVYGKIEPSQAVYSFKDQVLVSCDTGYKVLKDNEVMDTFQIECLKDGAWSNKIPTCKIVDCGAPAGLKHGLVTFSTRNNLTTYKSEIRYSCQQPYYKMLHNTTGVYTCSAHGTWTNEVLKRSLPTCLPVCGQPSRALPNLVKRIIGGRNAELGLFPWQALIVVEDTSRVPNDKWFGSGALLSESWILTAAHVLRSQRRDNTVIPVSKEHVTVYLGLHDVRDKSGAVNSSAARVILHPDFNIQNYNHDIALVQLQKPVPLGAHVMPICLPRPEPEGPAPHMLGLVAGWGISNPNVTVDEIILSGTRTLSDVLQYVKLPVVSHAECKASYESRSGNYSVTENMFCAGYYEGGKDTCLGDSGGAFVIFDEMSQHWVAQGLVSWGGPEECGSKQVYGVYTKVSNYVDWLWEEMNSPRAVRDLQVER

T2: human MASP3-His (human, UniProt P48740-2 20-728)
T2 construct: also called human MASP3 antigen; not shown: His tag added to the terminal
T2 sequence (looked up): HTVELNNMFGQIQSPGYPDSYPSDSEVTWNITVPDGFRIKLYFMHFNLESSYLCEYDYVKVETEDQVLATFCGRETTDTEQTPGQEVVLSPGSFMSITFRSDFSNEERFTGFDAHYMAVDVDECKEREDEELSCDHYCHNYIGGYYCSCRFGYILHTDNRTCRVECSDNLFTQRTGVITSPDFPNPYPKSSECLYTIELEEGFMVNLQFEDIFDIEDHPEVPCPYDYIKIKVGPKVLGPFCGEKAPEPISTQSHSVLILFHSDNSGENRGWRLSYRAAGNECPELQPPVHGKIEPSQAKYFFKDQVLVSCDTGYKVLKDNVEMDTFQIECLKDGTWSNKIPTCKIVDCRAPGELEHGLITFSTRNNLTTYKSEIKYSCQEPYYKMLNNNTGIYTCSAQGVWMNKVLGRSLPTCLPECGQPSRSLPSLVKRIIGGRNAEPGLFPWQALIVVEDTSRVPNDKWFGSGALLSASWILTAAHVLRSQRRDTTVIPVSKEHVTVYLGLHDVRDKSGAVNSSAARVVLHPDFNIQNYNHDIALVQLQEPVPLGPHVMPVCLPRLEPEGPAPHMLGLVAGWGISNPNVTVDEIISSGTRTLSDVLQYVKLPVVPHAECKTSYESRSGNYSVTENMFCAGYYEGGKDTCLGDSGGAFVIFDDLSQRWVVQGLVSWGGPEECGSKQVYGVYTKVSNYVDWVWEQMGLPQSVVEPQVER

T3: MASP3 in Factor D depleted human plasma (human, UniProt P48740-2 20-728)
T3 sequence (looked up): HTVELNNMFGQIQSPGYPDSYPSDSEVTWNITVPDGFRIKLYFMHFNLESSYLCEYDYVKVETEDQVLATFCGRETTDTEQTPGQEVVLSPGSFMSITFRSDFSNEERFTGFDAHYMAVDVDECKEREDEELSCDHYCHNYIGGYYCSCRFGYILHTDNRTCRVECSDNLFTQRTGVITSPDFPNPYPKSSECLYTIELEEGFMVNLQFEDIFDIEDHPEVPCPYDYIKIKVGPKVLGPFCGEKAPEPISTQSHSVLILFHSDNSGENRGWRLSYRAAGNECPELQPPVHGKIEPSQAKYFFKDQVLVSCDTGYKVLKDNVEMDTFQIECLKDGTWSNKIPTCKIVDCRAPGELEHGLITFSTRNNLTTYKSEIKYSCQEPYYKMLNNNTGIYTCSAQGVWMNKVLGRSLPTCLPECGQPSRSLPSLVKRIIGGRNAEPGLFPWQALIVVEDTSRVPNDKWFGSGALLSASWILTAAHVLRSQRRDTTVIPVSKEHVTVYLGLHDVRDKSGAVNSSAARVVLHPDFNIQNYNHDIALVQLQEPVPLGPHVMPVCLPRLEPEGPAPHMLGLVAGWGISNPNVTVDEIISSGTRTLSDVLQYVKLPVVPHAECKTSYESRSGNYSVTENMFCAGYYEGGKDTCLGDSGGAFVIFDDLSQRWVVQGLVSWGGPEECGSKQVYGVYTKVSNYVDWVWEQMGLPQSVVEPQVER


Columns and labels:
[1] = biological target: T4, monkey MASP3-His (monkey); test: SPR (Biacore 8K); antibody immobilized on CM5 chip, antigen as analyte
T4 construct: monkey species not further specified

[2] = biological target: T1, mouse MASP3-His; test: as above
[3] = biological target: T2, human MASP3-His; test: as above
[4] = biological target: T2, human MASP3-His; test: cell-based or functional assay
[5] = biological target: T3, MASP3 in Factor D depleted human plasma; test: cell-based or functional assay

Row | Binder | Kd [1] [nM] | koff [1] [s⁻¹] | kon [1] [M⁻¹ s⁻¹] | Kd [2] [nM] | koff [2] [s⁻¹] | kon [2] [M⁻¹ s⁻¹] | Kd [3] [nM] | koff [3] [s⁻¹] | kon [3] [M⁻¹ s⁻¹] | IC50 (nM), inhibition of MASP3 enzyme activity (fluorescent tripeptide cleavage) [4] [nM] | Inhibit hemolysis IC50 [5] [nM]
1 | M3-K2-8 (antibody, V domains shown, Humanized M3-K2) VH: QVQLVQSGAEVKKPGASVKVSCKASGYTFTGKWIEWVRQAPGQGLEWMGEILPGSGSTDYNERFKDRATFTADTSTSTAYMELSSLRSEDTAVYYCVRSEDLWGQGTLVTVSS VL: DIVLTQSPDSLAVSLGERATINCKSSQNLFNSRTRKNYLAWFQQKPGQSPKLLIYWASTRESGVPDRFSGSGSGTDFTLTISSLQAEDVAVYYCKQSYIPFTFGGGTKVEIK | 0.77 | 0.000137 | 178000 | 0.77 | 0.000137 | 178000 | 1.04 | 0.000189 | 182000 | 21.9 | 2.11
2 | M3-K2-6 (antibody, V domains shown, Humanized M3-K2) VH: QVQLVQSGAEVKKPGASVKVSCKASGYTFTGKWIEWVRQAPGQGLEWIGEILPGSGSTDYNERFKDRATFTADTSTSTAYMELSSLRSEDTAVYYCVRSEDLWGQGTLVTVSS VL: DIVLTQSPDSLAVSLGERATINCKSSQNLFNSRTRKNYLAWFQQKPGQSPKLLIYWASTRESGVPDRFSGSGSGTDFTLTISSLQAEDVAVYYCKQSYIPFTFGGGTKVEIK | 0.887 | 0.000147 | 165000 | 0.887 | 0.000149 | 168000 | 1.45 | 0.00025 | 173000 | 29.5 | 3.18
3 | M3-K2-11 (antibody, V domains shown, Humanized M3-K2) VH: QVQLVQSGAEVKKPGASVKVSCKASGYTFTGKWIEWVRQAPGQGLEWMGEILPGSGSTDYNERFKDRVTFTADTSTSTVYMELSSLRSEDTAVYYCVRSEDLWGQGTLVTVSS VL: DIVMTQSPDSLAVSLGERATINCKSSQNLFNSRTRKNYLAWFQQKPGQSPKLLIYWASTRESGVPDRFSGSGSGTDFTLTISSLQAEDVAVYYCKQSYIPFTFGGGTKVEIK | 0.86 | 0.000144 | 167000 | 0.86 | 0.000145 | 168000 | 1.34 | 0.000218 | 163000 | 26.4 | 2.2
4 | M3-K1-2 (antibody, V domains shown) VH: QVQLVQSGAEVKKPGASVKVSCKASGYTFTGKWIEWVRQAPGQGLEWIGEILPGSGSTDYNERFKDRATFTADTSTSTAYMELSSLRSEDTAVYYCVRSEDLWGQGTLVTVSS VL: DIVMTQSPDSLAVSLGERATINCKSSQSLLNSVTRKTYLAWYQQKPGQSPKLLIYWASTRESGVPDRFSGSGSGTDFTLTISSLQAEDVAVYYCKQSYTLPTFGGGTKVEIK | – | – | – | – | – | – | – | – | – | 31.2 | –
5 | M3-K2-7 (antibody, V domains shown) VH: QVQLVQSGAEVKKPGASVKVSCKASGYTFTGKWIEWVRQAPGQGLEWIGEILPGSGSTDYNERFKDRATFTADTSTSTAYMELSSLRSEDTAVYYCVRSEDLWGQGTLVTVSS VL: DIVMTQSPDSLAVSLGERATINCKSSQNLFNSRTRKNYLAWFQQKPGQSPKLLIYWASTRESGVPDRFSGSGSGTDFTLTISSLQAEDVAVYYCKQSYIPFTFGGGTKVEIK | – | – | – | – | – | – | – | – | – | 25.2 | –
6 | M3-K1-3 (antibody, V domains shown) VH: QVQLVQSGAEVKKPGASVKVSCKASGYTFTGKWIEWVRQAPGQGLEWMGEILPGSGSTDYNERFKDRATFTADTSTSTAYMELSSLRSEDTAVYYCVRSEDLWGQGTLVTVSS VL: DIVMTQSPDSLAVSLGERATINCKSSQSLLNSVTRKTYLAWYQQKPGQPPKLLIYWASTRESGVPDRFSGSGSGTDFTLTISSLQAEDVAVYYCKQSYTLPTFGGGTKVEIK | – | – | – | – | – | – | – | – | – | 24.2 | –
